{"source": "ChEMBL document CHEMBL1127885", "about": "“Benzylpenicillin methyl phosphate. A penicillin prodrug that inactivates RTEM -lactamase” (Bioorg Med Chem Lett, 1994)", "proteins": {"B1": {"name": "Beta-lactamase TEM (Escherichia coli), P62593 (protein)", "chain": "MSIQHFRVALIPFFAAFCLPVFAHPETLVKVKDAEDQLGARVGYIELDLNSGKILESFRPEERFPMMSTFKVLLCGAVLSRVDAGQEQLGRRIHYSQNDLVEYSPVTEKHLTDGMTVRELCSAAITMSDNTAANLLLTTIGGPKELTAFLHNMGDHVTRLDRWEPELNEAIPNDERDTTMPAAMATTLRKLLTGELLTLASRQQLIDWMEADKVAGPLLRSALPAGWFIADKSGAGERGSRGIIAALGPDGKPSRIVVIYTTGSQATMDERNRQIAEIGASLIKHW"}}, "substrate": "COP(=O)(O)OC(=O)[C@@H]1N2C(=O)[C@@H](NC(=O)Cc3ccccc3)[C@H]2SC1(C)C", "test": "Km against beta-lactamase in Escherichia coli", "data": [{"protein": "B1", "values": [{"measurement": "Km", "value": "> 50", "unit": "mM"}]}]}
